Reference: patent US20200225235A1

Target: anti-GASP-1 polyclonal antibody raised against a GASP-1 fragment consisting of … (SEQ ID NO: 2)
Assay: competitive ELISA: free peptide against plate-bound BSA-GASP-1 conjugate for the biotinylated antibody

difference in OD values between zero and 0.3 ng/ml competing peptide: 1.1 OD (450 nm)
B1: GASP-1 peptide … (SEQ ID NO: 2) (peptide)
peptide: EEASPEAVAGVGFESK
